Biological target: T1, GST-PTPMT1 (human) (UniProt Q8WUK0)
T1 sequence: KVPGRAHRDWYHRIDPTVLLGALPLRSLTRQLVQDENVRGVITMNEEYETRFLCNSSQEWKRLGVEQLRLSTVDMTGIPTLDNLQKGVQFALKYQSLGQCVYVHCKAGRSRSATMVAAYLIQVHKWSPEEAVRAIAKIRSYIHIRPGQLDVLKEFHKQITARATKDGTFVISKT

FLAG-MK-STYX (from UniProt Q9Y6J8-1 2-313) (natural protein)
reduction of PTPMT1 phosphatase activity towards OMFP, compared to FLAG protein alone; MK-STYX incubated with GST-PTPMT1 at 1:1 (51%) to 2:1 (60%) mass ratio: 60%

Source: PMC3977970
